# Assay results published in the nanobody polyreactivity screen of Harvey et al. (2022).
# Assay: yeast display, Sf9 membrane polyspecificity reagent, FACS + sequencing; frameworks hold sequencing errors
# In short: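 Nanobodies from a synthetic yeast display library (Saccharomyces cerevisiae BJ5465), induced 36–48 hours with galactose, were stained 1 hour at 4 °C with 10% biotinylated, detergent-solubilized Sf9 membrane reagent, enriched on streptavidin microbeads, then FACS-sorted. Anti-HA (expression) and streptavidin (reagent binding) fluorescence set low and high (top ~1%) gates. Polyreactivity labels come from the gate of origin. Genes were colony-PCR amplified, MiSeq 2 × 250 sequenced and filtered by CDR length.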
row,Sequence,polyreactivity (PSR sort gate)
1,QVQLVESGGGLVQAGGSLRLSCAASGRTFYYYAMGGYRQAPGKERELVAAISKSATRTYYADSVKGRFTISRDNAKNTVYLQMNSLKPEDTAVYYCATGQYLRTSRYYYWGQGTQVTVSS,high polyreactivity
2,QVQLVESGGGLVQAGGSLRLSCAASGRTFYYYAMGRYRQAPGKEREFVASISYSGARTYYADSVKGRFTISRDNAKNTVYLQMNSLKPEDTAVYYCAASWRSGRGTYGYWGQGTQVTVSS,high polyreactivity
3,QVQLVESGGGLVQAGGSLRLSCAASGRTFYYYAMGWYRQAPGKEREFVAAISWSGVRTSYADSVKGRFTISRDNAKNTVYLQMNSQKPEDTAVYYCNVAVAFYYDYWYSTYLTYEYDYWGQGTQVTVSS,high polyreactivity
4,QVQLVESGGGLVQAGGSLRLSCAASGRTFYYYAMGWYRQAPGKEREFVAAITTRGGSTYYADSVKGRFTISRDNAKNTVYLQMNSLKPEDTAVYYCAARSYYQGGYYYWGQGTQVTVSS,high polyreactivity
5,QVQLVESGGGLVQAGGSLRLSCAASGRTFYYYAMGWYRQAPGKERELVAAISSRGGSTYYADSVKGRFTISRDNAKNTVYLQMNSLKPEDTAVYYCAAERYFVLYRYYSYAYYYWGQGTQVTVSS,high polyreactivity
6,QVQLVESGGGLVQAGGSLRLSCAASGRTFYYYAMGWYRQAPGKERELVAAISWSGGRTYYADSVKGRFTISRDNAKNTVYLQMNSLKPEDTAVYYCAASSTGYGGSTYYYWGQGTQVTVSS,low polyreactivity
7,QVQLVESGGGLVQAGGSLRLSCAASGRTFYYYAMGWYRQAPGKERELVAGISWSAGSTYYADSVKGRFTISRDYAKNTVYLQMNSLKPEDTAVYYCAARYWQSYRSQVTHSSTLDYWGQGTQVTVSS,low polyreactivity
8,QVQLVESGGGLVQAGGSLRLSCAASGRTFYYYAMGWYRQAPGKERELVASISWSGGSTYYADSVKGRFTISRDNAKNTVYLQMNSLKPEDTAVYYCNAQYHTYRWLYAVYLSGDYWGQGTQVTVSS,low polyreactivity
9,QVQLVESGGGLVQAGGSLRLSCAASGRTFYYYVMGWYRQAPGKEREFVAAITSGGSTNYADSVKGRFTISRDNAKNTVYLQMNSLKPEDTAVYYCAAGKYTIYGYWTPYDYWGQGTQVTVSS,low polyreactivity
10,QVQLVESGGGLVQAGGSLRLSCAASGRTGKNAMGWYRQAPVKERELVAAIRYNGGSTYYADSVKGRFTISRDNAKNTVYLQMNSLKPEDTAVYYCAAASRRHNGSAFNYWGQGTLVTVSS,high polyreactivity
11,QVQLVESGGGLVQAGGSLRLSCAASGRTGVNAMGWYRQAPGKERGMVAAINTSVGRTYYADSVKGRFTISRDNAKNTVYLQMNSLKPEDTAVYYCNTDRLGAARYDYWGQGTQVTVSS,low polyreactivity
12,QVQLVESGGGLVQAGGSLRLSCAASGRTICRNVMGWYRQAPGKERELVAAISRSGGSTYYADSVKGRFTISRDNAKNTVYLQMNSLKPEVTAVYYCAAYSVGDYYWGQGTQVTVSS,high polyreactivity
13,QVQLVESGGGLVQAGGSLRLSCAASGRTIDDYDMGWYRQAPGKERELVADINSGGSTYYADSVKGRFTISRDNAKNTVYLQMNSLKPEDTAVYYCAATLVPWPYTGPRYGYWGQGTQVTVSS,high polyreactivity
14,QVQLVESGGGLVQAGGSLRLSCAASGRTIDHYAMGWYRQAPGKERELVAAISTTGGSTYYADSVKGRFTISRDNAKNTVYLQMNSLKPEDTAVYYCAARGLRTGGYWGQGTQVTVSS,high polyreactivity
15,QVQLVESGGGLVQAGGSLRLSCAASGRTIGAYAMGWYRQAPGKEREFVAAITFGGGPTYYADSVKGRFTISRDNAKNTVYLQMNSLKPEDTAVYYCAKRIDLSLPYARYDYWGQVTQVTVSS,low polyreactivity
16,QVQLVESGGGLVQAGGSLRLSCAASGRTIGGYAMGWYRQAPGKEREMVAAINYSGGTTYYADSVKGRFTISRDNAKNTVYLQMNSLKPEDTAVYYCIRDYHSESGNPGYQYGYWGQGTQVTVSS,high polyreactivity

row,Sequence,polyreactivity (PSR sort gate)
1,QVQLVESGGGLVQAGGSLRLSCAASGRTIGINAMGWYRQAPGKERELVAVISFGDGGTYYADSVKGRFTISRDNAKNTVYLQMNSLKPEDTEVYYCATDYQSTSVWGGHFVINPYDYWGQGTQVTVSS,low polyreactivity
2,QVQLVESGGGLVQAGGSLRLSCAASGRTIGVYAMGWYRQAPGKERELVAAISWSGGTTYYADSVKGRFTISRDNAKNTVYLQMNSLKPEDTAVYYCAADSYTEVDYWGQGSQVTVSS,low polyreactivity
3,QVQLVESGGGLVQAGGSLRLSCAASGRTIKYYAMGWDRQAPGKERELVAVISWSGGSTYYADSVKGRFTISRDNAKNTVYLQMISLKPEDTAVYYCNAYVYAYYAGYNYWGQGTQVTVSS,high polyreactivity
4,QVQLVESGGGLVQAGGSLRLSCAASGRTILVYAMGWYRQAPGKERELVAAISRSGGSTYYADSVKGRFTISRDNAKNTVYLQMNSLKPEDTAVYYCAAKNTGRYYWGQGTQVTVSS,high polyreactivity
5,QVQLVESGGGLVQAGGSLRLSCAASGRTINPYGMGWYRPAPGKERELVADINSGGITNYADSVKGRFTISRDNAKNTVYLQMNSLKPEDTAVYYCNADGFIQPDDWRNFAGDYWGQGTQVTVSS,low polyreactivity
6,QVQLVESGGGLVQAGGSLRLSCAASGRTIRFNAMGWYRQAQGKESELVAAISFSGGNTYYADSVKGRFTISRDNAKNTVYIQMNSLKPDDTAVYYCAARFTYRYYNYLKYDYWGKGTQVTVSS,high polyreactivity
7,QVQLVESGGGLVQAGGSLRLSCAASGRTIRGYTMGWYRQSAGTERELVATITKRGGSTTYADSVKGRFTISRDNAKNTVYLQMNSLKPEDTAVYYCNKDTITSTLTPYTSWFGYWGQGTQVTVSS,high polyreactivity
8,QVQLVESGGGLVQAGGSLRLSCAASGRTIRRYAMGWYRQAPGKERELVAAISYSGGSTYYADSVKGRFTISRDNAKNTVYLQMNSLKPEDTAVYYCAARYLGKKYYYWGQGTQVTVSS,high polyreactivity
9,QVQLVESGGGLVQAGGSLRLSCAASGRTIRSYAMGWYRQAPGKERELVAAITGSGGRTYYADSVKGRFTISRDNAKNTVYLQLNSLKPEDTAVYYCAARLRGSYDYWGQGTQVTVSS,high polyreactivity
10,QVQLVESGGGLVQAGGSLRLSCAASGRTIRWNAMGWYRQAPGKERELVAAITSRGGSTYYADSVKGRFTISRDNAKNTVYLQMNSLKPEDTAVYYCAKQPKPPPVTGYDYWGQGTQVTVSS,high polyreactivity
11,QVQLVESGGGLVQAGGSLRLSCAASGRTIRWYTMGGYRQAPGKEMELVAGISSSGGSTYYADSVKGRFTISRDNAMNTVYLQMNSLKPEDTAVYYCNAQALRLFWRYDYWGQGTQVTVSS,low polyreactivity
12,QVQLVESGGGLVQAGGSLRLSCAASGRTIRYYAMGWYRQAPGKERELVAAISWNGANTYYADSVKGRFTISRDNAKNTVYLQMNSLKPEDTAVYYCAATYYRWKGYDYWGQGTQVTVSS,high polyreactivity
13,QVQLVESGGGLVQAGGSLRLSCAASGRTISFNTMAWYRQAPGKERDLVAGIERGGSTNYADSVKVRFTISRDNAKNTVYFQMNSLKPEDTAVYYCAARNLRYRYRNYDYWGQGTQVTVSS,high polyreactivity
14,QVQLVESGGGLVQAGGSLRLSCAASGRTISKNTMGWYRQAPGKERELVAAISSSGGSTNYADSVKGRFTISRDNAKNTVYLQMNSLKPEETAVYYCAADPWRFRSRPVNYWGQGTQVSVSS,high polyreactivity
15,QVQLVESGGGLVQAGGSLRLSCAASGRTISVYGMGWYRQAPGKERELVASITWRGGTTYYADSVKGRFTISRDNAKNTVYLQMNSLKPEDTAVYYCAAYWPYTTYRYRYDYWGQGTQVTVSS,high polyreactivity
